Biological target: T1, recombinant human IGF-1R-his (human, UniProt P08069 31-932)
T1 construct: Recombinant his-tagged protein; also called hIGF-1R-his; hIGF1R-his; not shown: his tag
Test: ELISA, coated hIGF-1R-his
Experimental: The binding activity of the nanobody-Fc fusion proteins obtained after two rounds of mutant construction with the antigen proteins (recombinant human IGF-1R-His) was detected by an ELISA method: 2 μg/mL recombinant human IGF1R-His antigen proteins were added to a 96-well ELISA plate, at 30 μL/well, for coating overnight at 4° C. The plate was washed three times with PBST. PBS containing 5% skim milk powder was added for blocking at room temperature for 2 h. The plate was washed three times with PBST. The nanobody-Fc fusion proteins were serially diluted 3-fold, and the nanobody-Fc fusion proteins of different concentrations were added to each well at 30 μL/well and incubated at room temperature for 1 h. The plate was washed three times with PBST, and horseradish peroxidase-labeled anti-human Fc antibodies were added at 30 μL/well and incubated at room temperature for 50 min. The plate was washed three times with PBST. TMB substrate solution was added at 30 μL/well for color development in the dark for 1-5 min, 30 μL of 2 M hydrochloric acid was added to terminate the reaction, and the OD₄₅₀ was read using a microplate reader. Curve fitting was conducted and the EC₅₀ value was calculated using Graphpad Prism software.

T1 sequence (P08069 31-932 limits assumed): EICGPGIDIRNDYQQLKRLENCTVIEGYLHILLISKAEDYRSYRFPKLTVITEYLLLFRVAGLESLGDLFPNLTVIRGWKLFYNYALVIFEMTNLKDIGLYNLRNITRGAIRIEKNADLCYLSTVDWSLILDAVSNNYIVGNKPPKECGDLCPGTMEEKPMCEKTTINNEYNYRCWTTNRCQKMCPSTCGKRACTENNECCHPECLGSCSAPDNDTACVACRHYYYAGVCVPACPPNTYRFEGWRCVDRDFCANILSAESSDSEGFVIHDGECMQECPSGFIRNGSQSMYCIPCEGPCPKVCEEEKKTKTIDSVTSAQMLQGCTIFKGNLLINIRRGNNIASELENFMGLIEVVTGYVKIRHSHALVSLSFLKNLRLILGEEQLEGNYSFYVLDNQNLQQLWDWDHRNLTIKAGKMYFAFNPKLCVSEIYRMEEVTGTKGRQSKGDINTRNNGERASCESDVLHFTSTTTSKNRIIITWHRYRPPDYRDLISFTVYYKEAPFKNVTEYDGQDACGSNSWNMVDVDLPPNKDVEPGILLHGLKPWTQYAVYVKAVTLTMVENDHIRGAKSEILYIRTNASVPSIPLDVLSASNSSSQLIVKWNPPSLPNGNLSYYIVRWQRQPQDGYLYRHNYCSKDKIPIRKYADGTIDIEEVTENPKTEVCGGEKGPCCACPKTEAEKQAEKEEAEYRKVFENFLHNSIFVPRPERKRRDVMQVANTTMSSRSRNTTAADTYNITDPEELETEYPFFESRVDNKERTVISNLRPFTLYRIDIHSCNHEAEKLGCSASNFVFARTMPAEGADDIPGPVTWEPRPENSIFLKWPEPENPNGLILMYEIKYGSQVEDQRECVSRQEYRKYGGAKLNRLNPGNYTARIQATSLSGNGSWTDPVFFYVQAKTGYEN

Binder	EC50 [ng/mL]
5115-H1-M1-Fc (Fc fusion, VHH-Fc; Fc not specified; not shown: Fc) EVQLVESGGGLVQPGGSLRLSCAASGRTFSSFVMSWFRQAPGKEREFVSAISGSGSRSRYADSVKGRFTISRDNSKNTLYLQMNSLRAEDTAVYYCAANPRRATPDYTQYAYWGQGTLVTVSS	1.22
5115-H1-M23-Fc (Fc fusion, VHH-Fc; Fc not specified; not shown: Fc) EVQLVESGGGLVQPGGSLRLSCAASGRTFKSFVMSWFRQAPGKEREFVSAISGSGSRARYADSVKGRFTISRDNSKNTLYLQMNSLRAEDTAVYYCAANPRRATPDMTQYAYWGQGTLVTVSS	1.74
5115-H1-M26-Fc (Fc fusion, VHH-Fc; Fc not specified; not shown: Fc) EVQLVESGGGLVQPGGSLRLSCAASGRTFSSFVMSWFRQAPGKEREFVSAISGSGSRYTYADSVKGRFTISRDNSKNTLYLQMNSLRAEDTAVYYCAANPRRATPDLMQYAYWGQGTLVTVSS	1.52
5115-H1-M6-Fc (Fc fusion, VHH-Fc; Fc not specified; not shown: Fc) EVQLVESGGGLVQPGGSLRLSCAASGREFSSFVMAWFRQAPGKGLEFVSAISGSGSRARYADSVKGRFTISRDNSKNTLYLQMNSLRAEDTAVYYCAANPRRATPDLTSYAYWGQGTLVTVSS	2.62
5115-H1-M21-Fc (Fc fusion, VHH-Fc; Fc not specified; not shown: Fc) EVQLVESGGGLVQPGGSLRLSCAASGKTFSSFVMSWFRQAPGKEREFVSAISGSGSRTRYADSVKGRFTISRDNSKNTLYLQMNSLRAEDTAVYYCAANPRRATPDYTQYAYWGQGTLVTVSS	3.35
5115-H1-M27-Fc (Fc fusion, VHH-Fc; Fc not specified; not shown: Fc) EVQLVESGGGLVQPGGSLRLSCAASGRTLSSFVMAWFRQAPGKGLEFVSAISGSGLRARYADSVKGRFTISRDNSKNTLYLQMNSLRAEDTAVYYCAANPRYATPDLTQYAYWGQGTLVTVSS	1.79
5115-H1-M25-Fc (Fc fusion, VHH-Fc; Fc not specified; not shown: Fc) EVQLVESGGGLVQPGGSLRLSCAASGRFFSSFVMSWFRQAPGKEREFVSAISGSGSRARYADSVKGRFTISRDNSKNTLYLQMNSLRAEDTAVYYCAANPRRATPDYSQYAYWGQGTLVTVSS	1.33
5115-H1-M8-Fc (Fc fusion, VHH-Fc; Fc not specified; not shown: Fc) EVQLVESGGGLVQPGGSLRLSCAASGRTFSSFVMSWFRQAPGKEREFVSAISGSGSRQRYADSVKGRFTISRDNSKNTLYLQMNSLRAEDTAVYYCAANPRRATPDLSQYAYWGQGTLVTVSS	2
5115-H1-M22-Fc (Fc fusion, VHH-Fc; Fc not specified; not shown: Fc) EVQLVESGGGLVQPGGSLRLSCAASGRTFSSFVMSWFRQAPGKEREFVSAISGSGSRSRYADSVKGRFTISRDNSKNTLYLQMNSLRAEDTAVYYCAANPRRATPDLLQYAYWGQGTLVTVSS	1.79
5115-H1-M14-Fc (Fc fusion, VHH-Fc; Fc not specified; not shown: Fc) EVQLVESGGGLVQPGGSLRLSCAASGRTFSSFVMSWFRQAPGKEREFVSAISGSGSRMRYADSVKGRFTISRDNSKNTLYLQMNSLRAEDTAVYYCAANPRRATPDLTQYAYWGQGTLVTVSS	4.31
5115-H1-M18-Fc (Fc fusion, VHH-Fc; Fc not specified; not shown: Fc) EVQLVESGGGLVQPGGSLRLSCAASGRRFSSFVMSWFRQAPGKEREFVSAISGSGSRARYADSVKGRFTISRDNSKNTLYLQMNSLRAEDTAVYYCAANPRRATPDLTQYAYWGQGTLVTVSS	2.89

Next, values leading:

EC50 [ng/mL]	Binder
3.61	5115-H1-M16-Fc (Fc fusion, VHH-Fc; Fc not specified; not shown: Fc) EVQLVESGGGLVQPGGSLRLSCAASHRTFSSFVMSWFRQAPGKEREFVSAISGSGSRARYADSVKGRFTISRDNSKNTLYLQMNSLRAEDTAVYYCAANPRRATPDLTQYAYWGQGTLVTVSS
2.3	5115-H1-M9-Fc (Fc fusion, VHH-Fc; Fc not specified; not shown: Fc) EVQLVESGGGLVQPGGSLRLSCAASGRTFSSFVMSWFRQAPGKEREFVSAISGSGSRLRYADSVKGRFTISRDNSKNTLYLQMNSLRAEDTAVYYCAANPRRATPDLLQYAYWGQGTLVTVSS
5.88	5115-H1-M5-Fc (Fc fusion, VHH-Fc; Fc not specified; not shown: Fc) EVQLVESGGGLVQPGGSLRLSCAASGRYFSSFVMAWFRQAPGKGLEFVSAISGSGLRARYADSVKGRFTISRDNSKNTLYLQMNSLRAEDTAVYYCAANPRRATPDLTSYAYWGQGTLVTVSS
1.94	5115-H1-M4-Fc (Fc fusion, VHH-Fc; Fc not specified; not shown: Fc) EVQLVESGGGLVQPGGSLRLSCAASGRFFSSFVMSWFRQAPGKEREFVSAISGSGSRFRYADSVKGRFTISRDNSKNTLYLQMNSLRAEDTAVYYCAANPRRATPDYTQYAYWGQGTLVTVSS
2.21	5115-H1-M20-Fc (Fc fusion, VHH-Fc; Fc not specified; not shown: Fc) EVQLVESGGGLVQPGGSLRLSCAASGRTFRSFVMSWFRQAPGKEREFVSAISGSGSRYRYADSVKGRFTISRDNSKNTLYLQMNSLRAEDTAVYYCAANPRRATPDYTQYAYWGQGTLVTVSS
1.93	5115-H1-M19-Fc (Fc fusion, VHH-Fc; Fc not specified; not shown: Fc) EVQLVESGGGLVQPGGSLRLSCAASGRTFSSFVMSWFRQAPGKEREFVSAISGSGSRMRYADSVKGRFTISRDNSKNTLYLQMNSLRAEDTAVYYCAANPRRATPDLHQYAYWGQGTLVTVSS
3.04	5115-H1-M7-Fc (Fc fusion, VHH-Fc; Fc not specified; not shown: Fc) EVQLVESGGGLVQPGGSLRLSCAASGRTFSSFVMSWFRQAPGKEREFVSAISGRGSRAYYADSVKGRFTISRDNSKNTLYLQMNSLRAEDTAVYYCAANPRRATPDLRQYAYWGQGTLVTVSS
2.9	5115-H1-M13-Fc (Fc fusion, VHH-Fc; Fc not specified; not shown: Fc) EVQLVESGGGLVQPGGSLRLSCAASLGTFSSFVMSWFRQAPGKEREFVSAISGSGSRARYADSVKGRFTISRDNSKNTLYLQMNSLRAEDTAVYYCAANPRRATPDYTQYAYWGQGTLVTVSS
1.41	5115-H1-M12-Fc (Fc fusion, VHH-Fc; Fc not specified; not shown: Fc) EVQLVESGGGLVQPGGSLRLSCAASGRTFSSFVMSWFRQAPGKEREFVSAISGSGSRARYADSVKGRFTISRDNSKNTLYLQMNSLRAEDTAVYYCAANPRRATPDLRQYAYWGQGTLVTVSS
2.67	5115-H1-M15-Fc (Fc fusion, VHH-Fc; Fc not specified; not shown: Fc) EVQLVESGGGLVQPGGSLRLSCAASGRTFSSFVMSWFRQAPGKEREFVSAISGSGSRMRYADSVKGRFTISRDNSKNTLYLQMNSLRAEDTAVYYCAANPRRATPDLRQYAYWGQGTLVTVSS
1.83	5115-H1-M24-Fc (Fc fusion, VHH-Fc; Fc not specified; not shown: Fc) EVQLVESGGGLVQPGGSLRLSCAASGRTFSGFVMAWFRQAPGKGLEFVSAISGTGSRARYADSVKGRFTISRDNSKNTLYLQMNSLRAEDTAVYYCAANPRRATPDLTQYAYWGQGTLVTVSS
2.51	5115-H1-M11-Fc (Fc fusion, VHH-Fc; Fc not specified; not shown: Fc) EVQLVESGGGLVQPGGSLRLSCAASGIRFSSFVMSWFRQAPGKEREFVSAISGSGSRHRYADSVKGRFTISRDNSKNTLYLQMNSLRAEDTAVYYCAANPRRATPDYTQYAYWGQGTLVTVSS
1.5	5115-H1-M2-Fc (Fc fusion, VHH-Fc; Fc not specified; not shown: Fc) EVQLVESGGGLVQPGGSLRLSCAASGRTFSSFVMSWFRQAPGKEREFVSAISGSGSRARYADSVKGRFTISRDNSKNTLYLQMNSLRAEDTAVYYCAANPRRATPDLLQYAYWGQGTLVTVSS

— patent publication US20250145723A1 (MINGHUI PHARMACEUTICAL HANGZHOU, published 2025)
